Laboratory results from patent US8541373B2, “BChE albumin fusions for the treatment of cocaine abuse” (priority 2009, dated 2013).

Tests used:
[1] = Cardiovascular and respiratory safety pharmacology of AlbuBChE alone (telemetry); conditions: 15 mg/kg IM
Experimental: Prior to the start of the study, the monkeys were surgically instrumented with telemetry transmitters and vascular access ports. The following CV parameters were monitored: systolic pressure, diastolic pressure, mean arterial blood pressure, mean heart rate and mean rate-pressure product. Body temperatures changes were also monitored.
Study Group 1 (3 males and 3 females), served as a control group for testing the effect of AlbuBChE alone compared to its vehicle. Monkeys were administered (IM) with the control article AlbuBChE formulation buffer on Study Days (SDs) 1 and 4. Three hours post formulation buffer administration respiratory and cardiovascular (CV) parameters were recorded, respectively.
A single IM dose of the test article (AlbuBChE at 15 mg/kg) was administered on SD 8 and 11. Three hours after AlbuBChE dosing (corresponding to Tmax of AlbuBChE) CV and respiratory parameters were monitored, respectively.
The physiological responses to test article administration, including blood pressure, heart rate, body temperature, and the electrocardiograph (ECG), were monitored.

[2] = Previous pharmacokinetic study, SC, IM and IV administration (bioavailability); conditions: previous study in cynomolgus monkeys
Experimental: AlbuBChE absolute bioavailability for IM and Sc routes of administration was calculated relative to IV at the […] dose level.
In a previous study, AlbuBChE pharmacokinetic profile was evaluated in cynomolgus monkeys. In that study, the test article was administered SC (7.8, 2.4 and 0.78 mg/kg), IM (2.4 mg/kg) and IV (2.4 mg/kg). […] In addition, AlbuBChE IM dose levels of 0.2, 1 and 5 mg/kg were selected to define AlbuBChE pharmacodynamic range in cynomolgus monkeys.

[3] = Clinical study: safety, tolerability and immunogenicity of single IM AlbuBChE; type: in vivo, human; conditions: humans
Experimental: Forty (40) non-treatment seeking healthy adults who have used cocaine are randomly assigned to five (5) treatment groups. Each group will contain eight subjects. • Group A (low dose): Subjects receive a single, intramuscular injection of 50 mg of AlbuBChE. • Group B (intermediate dose): Subjects receive a single, intramuscular injection of 100 mg of AlbuBChE. • Group C (high-intermediate dose): Subjects receive a single, intramuscular injection of 150 mg of AlbuBChE. • Group D (high dose): Subjects receive a single, intramuscular injection of 300 mg of AlbuBChE. • Group E (negative control): Subjects receive a single, intramuscular injection of placebo.
Vital signs, including blood pressure, heart rate (part of the PD parameters) and body temperature are monitored. […]. Telemetry is performed for 4 hours immediately after each cocaine injection.
Local tolerability and pain (evaluated by the visual analogue scale (VAS)) at the injection site are evaluated during the first 24 h after dosing. Timepoints are: 20 min, 1, 2, 4, 8 and 24 hours post AlbuBChE dose.
Samples for immunogenic levels are collected but are not all necessarily assayed. Titers for antibodies against HSA, human butyryl cholinesterase (hBChE) and AlbuBChE are evaluated. Sampling timepoints are: pre-dose and 168 hours (Day 8), 240 hours (Day 11) and follow-up (Day 18±2) post-dose. The blood tests for IG assays take place before administration of cocaine (where relevant).

With AlbuBChE the “Changes in recorded CV parameters and body temperature vs formulation buffer” value [1] was “did not produce any significant changes”, the Survival ([1]; with or without cocaine) was “All animals survived” and the Bioavailability ([2]; IM) was 79%. For the same substance, the Bioavailability ([2]; SC) was 35-39%, the “Local tolerability and pain at the IM injection site” value [3] was “acceptable” and the Immune response ([3]; 50 mg to 300 mg single dose) was “does not provoke a significant immune response”. The Safety ([3]; IM doses of 50 mg to 300 mg) was “No significant safety issues are observed”, the Tolerability ([3]; IM doses of 50 mg to 300 mg) was “well tolerated” and the “Blood pressure after AlbuBChE” value ([3]; intramuscular injection) was “a significant increase in blood pressure is not observed”.
